Assay results taken from US20230357429A1 (JANUX THERAPEUTICS, published 2023).
Numbering of substitutions follows the chain as printed. In names and notes the source's numbering stands. Where two headings read alike, the source gives them in different places. Blank lines part the entries; values can stand above or below the binder they belong to. Where no end group is shown, it is not given here.

Key:
TBD-1 wt = target: T1, TBD-1 wt; assay: competition ELISA, peptide vs Fab binding to captured biotin-TROP2
T1 construct: Fab; the heavy chain entry is VH-CH1; also called wild-type anti-TROP2 Fab (hRS7); TROP2 Fab

TBD-11 (HC R98A) [1] = target: T2, TBD-11 (HC R98A); assay: competition ELISA, Fab on captured TROP2
T2 construct: anti-TROP2 Fab, CDR3 HC alanine mutant

Human TROP2 Full length = target: T3, Human TROP2 Full length (human, UniProt P09758 31-323); assay: cell-based or functional assay
T3 sequence: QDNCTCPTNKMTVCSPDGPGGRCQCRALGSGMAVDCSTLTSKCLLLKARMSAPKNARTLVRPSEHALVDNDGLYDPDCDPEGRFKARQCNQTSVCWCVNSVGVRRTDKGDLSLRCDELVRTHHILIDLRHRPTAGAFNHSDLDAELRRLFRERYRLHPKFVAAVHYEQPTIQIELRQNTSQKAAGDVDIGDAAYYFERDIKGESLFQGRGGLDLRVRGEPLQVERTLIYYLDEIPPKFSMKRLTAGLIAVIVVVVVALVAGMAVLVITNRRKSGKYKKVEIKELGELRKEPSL

Cyno TROP2 Full length = target: T4, Cyno TROP2 Full length (cynomolgus monkey, UniProt P09758 31-323 (human entry)); assay: cell-based or functional assay
T4 chain: T3 sequence with M32V, S63N, I200V, M262V, T268S

[2] = target: T5, Human TROP2 ECD (31-274 AA) (human, UniProt P09758 31-274, biotinylated); assay: ELISA; biotinylated TROP2 on neutravidin plates, PC titrated, HRP secondary
T5 construct: also called biotinylated TROP2; TROP2-biotin
T5 sequence: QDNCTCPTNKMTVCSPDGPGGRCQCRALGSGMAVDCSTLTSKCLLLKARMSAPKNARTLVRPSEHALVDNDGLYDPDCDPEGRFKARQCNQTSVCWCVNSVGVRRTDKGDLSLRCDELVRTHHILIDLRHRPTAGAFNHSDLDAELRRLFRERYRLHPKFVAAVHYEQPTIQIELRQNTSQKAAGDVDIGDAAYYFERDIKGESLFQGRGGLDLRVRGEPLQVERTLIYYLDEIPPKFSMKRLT

[3] = target: T6, TBD-1 wt (anti-TROP2 Fab, hRS7); assay: competition ELISA, Fab on captured TROP2
T6 construct: non-mutated Fab

TBD-6 (LC I93A) = target: T7, TBD-6 (LC I93A); assay: competition ELISA, Fab on captured TROP2
T7 construct: anti-TROP2 Fab, CDR3 LC alanine mutant

TBD-17 (HC S104A) [4] = target: T8, TBD-17 (HC S104A); assay: competition ELISA, Fab on captured TROP2
T8 construct: anti-TROP2 Fab, CDR3 HC alanine mutant

TBD-22 (HC D109A) [5] = target: T9, TBD-22 (HC D109A); assay: competition ELISA, Fab on captured TROP2
T9 construct: anti-TROP2 Fab, CDR3 HC alanine mutant

TBD-11 (HC R98A) [6] = target: T10, TBD-11 (HC R98A); assay: competition ELISA, peptide vs Fab binding to captured biotin-TROP2
T10 construct: Fab; also called HC R98A mutant

TBD-17 (HC S104A) [7] = target: T11, TBD-17 (HC S104A); assay: as above
T11 construct: Fab; also called HC S104A mutant

TBD-21 (HC F108A) [8] = target: T12, TBD-21 (HC F108A); assay: as above
T12 construct: Fab; also called HC F108A mutant

TBD-22 (HC D109A) [9] = target: T13, TBD-22 (HC D109A); assay: as above
T13 construct: Fab; also called HC D109A mutant

TBD-11 (HC R98A) [10] = target: T10, TBD-11 (HC R98A); assay: as above; remark: listed apart in the source
TBD-17 (HC S104A) [11] = target: T11, TBD-17 (HC S104A); assay: as above; remark: listed apart in the source
TBD-21 (HC F108A) [12] = target: T12, TBD-21 (HC F108A); assay: as above; remark: listed apart in the source
TBD-22 (HC D109A) [13] = target: T13, TBD-22 (HC D109A); assay: as above; remark: listed apart in the source

Binder: SVLFCVKNLYCWVT (cysteine pairing not given here; also: biotinylated (site not given here)) [Peptide-24]
IC50 (TBD-1 wt): 2.78 µM

Binder: VDFCSFYRWPICET (cysteine pairing not given here; also: biotinylated (site not given here)) [Peptide-20]
IC50 (TBD-1 wt): 1.61 µM

B1: PC-48 (bispecific antibody)
light: GGVDFCALYHWPICYQGGGGSGGGSGGSGGASSGAGGSGGGSDIQLTQSPSSLSASVGDRVSITCKASQDVSIAVAWYQQKPGKAPKLLIYSASYRYTGVPDRFSGSGSGTDFTLTISSLQPEDFAVYYCQQHYITPLTFGAGTKVEIKRTVAAPSVFIFPPSDEQLKSGTASVVCLLNNFYPREAKVQWKVDNALQSGNSQESVTEQDSKDSTYSLSSTLTLSKADYEKHKVYACEVTHQGLSSPVTKSFNRGEC
heavy: not shown
notes: Masked polypeptide complex with non-cleavable linker: anti-TROP2 F108A, anti-CD3 wt
H292 Cytotoxicity EC50 (pM) (Human TROP2 Full length): > 100000 pM
HCT116 Cytotoxicity EC50 (pM) (Human TROP2 Full length): > 100000 pM
CyTROP2 HEK293 EC50 (pM) (Cyno TROP2 Full length): 69900 pM
EC50 [2]: 3.96 µM

B2: PC-49 (bispecific antibody)
light: GGVDFCALYHWPICYQGGGSGGSGGISSGLLSGRSDAGSGGSDIQLTQSPSSLSASVGDRVSITCKASQDVSIAVAWYQQKPGKAPKLLIYSASYRYTGVPDRFSGSGSGTDFTLTISSLQPEDFAVYYCQQHYITPLTFGAGTKVEIKRTVAAPSVFIFPPSDEQLKSGTASVVCLLNNFYPREAKVQWKVDNALQSGNSQESVTEQDSKDSTYSLSSTLTLSKADYEKHKVYACEVTHQGLSSPVTKSFNRGEC
heavy: not shown
notes: Masked polypeptide complex with CL2 cleavable linker: anti-TROP2 F108A, anti-CD3 wt
H292 Cytotoxicity EC50 (pM) (Human TROP2 Full length): 67400 pM
HCT116 Cytotoxicity EC50 (pM) (Human TROP2 Full length): > 100000 pM
CyTROP2 HEK293 EC50 (pM) (Cyno TROP2 Full length): 10600 pM
EC50 [2]: 1.36 µM

Binder: DNLICVKNLWCWIA (cysteine pairing not given here; also: biotinylated, site not given here) [Peptide-26]
IC50 (TBD-1 wt): 2.23 µM

B3: PC-33 (bispecific antibody)
light: GGVDFCALYHWPICYQGGGGSGGLSGRSDAGSPLGLAGSGGSDIQLTQSPSSLSASVGDRVSITCKASQDVSIAVAWYQQKPGKAPKLLIYSASYRYTGVPDRFSGSGSGTDFTLTISSLQPEDFAVYYCQQHYITPLTFGAGTKVEIKRTVAAPSVFIFPPSDEQLKSGTASVVCLLNNFYPREAKVQWKVDNALQSGNSQESVTEQDSKDSTYSLSSTLTLSKADYEKHKVYACEVTHQGLSSPVTKSFNRGEC
heavy: not shown
notes: Masked polypeptide complex: anti-TROP2 F108A, anti-CD3 wt; CD3 mask …
H292 Cytotoxicity EC50 (pM) (Human TROP2 Full length): 13200 pM
CyTROP2 HEK293 EC50 (pM) (Cyno TROP2 Full length): 837 pM
EC50 [2]: 0.574 µM

B4: PC-40 (bispecific antibody)
light: B3 light
heavy: EVQLVESGGGLVQPGGSLRLSCAASGSTFYTAVMGWVRQAPGKGLEWVAAIRWTALTTSYADSVKGRFTISRDGAKTTLYLQMNSLRPEDTAVYYCAARGTLGLFTTADSYDYWGQGTLVTVSSGGGGSGGGSGGYLCGPDADETLACYGGGGSGGGLSGRSDAGSPLGLAGSGGGSEVQLVESGGGLVQPGGSLKLSCAASGFTFNKYAMNWVRQASGKGLEWVGRIRSKYNNYATYYADSVKDRFTISRDDSKNTAYLQMNSLKTEDTAVYYCVRHGNFGNSYISYWAYWGQGTLVTVSSGGGGSGGGGSGGGGSQTVVTQEPSFSVSPGGTVTLTCRSSTGAVTSGNYANWVQQTPGQAPRGLIGGTKFLAPGVPDRFSGSILGNKAALTITGAQADDESDYYCVLWYSNRWVFGGGTKLTVLGGGGSQVQLQQSGSELKKPGASVKVSCKASGYTFTNYGMNWVKQAPGQGLKWMGWINTYTGEPTYTDDFKGRFAFSLDTSVSTAYLQISSLKADDTAVYFCARGGFGSSYWYADVWGQGSLVTVSSASTKGPSVFPLAPSSKSTSGGTAALGCLVKDYFPEPVTVSWNSGALTSGVHTFPAVLQSSGLYSLSSVVTVPSSSLGTQTYICNVNHKPSNTKVDKKVEPKSC
notes: Masked polypeptide complex: anti-TROP2 F108A, anti-CD3 with P41S, A49G, N87S ; E227D; CD3 mask YLCGPDADETLACY
H292 Cytotoxicity EC50 (pM) (Human TROP2 Full length): 53200 pM
HCT116 Cytotoxicity EC50 (pM) (Human TROP2 Full length): > 100000 pM
CyTROP2 HEK293 EC50 (pM) (Cyno TROP2 Full length): 10400 pM
EC50 [2]: 3.51 µM

Binder: EDFCKLYNWPICYQ (cysteine pairing not given here; also: biotinylated, site not given here) [Peptide-7]
IC50 (TBD-11 (HC R98A) [10]): 1 µM
IC50 (TBD-17 (HC S104A) [11]): 3.77 µM
IC50 (TBD-21 (HC F108A) [12]): 4.01 µM
IC50 (TBD-22 (HC D109A) [13]): 0.13 µM

Continued, values first:

IC50 (TBD-11 (HC R98A) [1]): 1.13 µM
Binder: VEICKQWFYTVCLS (mask peptide for the TROP2 Fab) [Peptide-58]

IC50 [3]: 9.29 µM
IC50 (TBD-6 (LC I93A)): 14.5 µM
IC50 (TBD-11 (HC R98A) [1]): 409 µM
IC50 (TBD-17 (HC S104A) [4]): 39.6 µM
IC50 (TBD-22 (HC D109A) [5]): 2.5 µM
Binder: VDFCYQYGWPICSRVD (mask peptide for the TROP2 Fab) [Peptide-45]

IC50 (TBD-1 wt): 1.91 µM
Binder: TSLICFRNVYCWNV (cysteine pairing not given here; also: biotinylated, site not given here) [Peptide-30]

IC50 (TBD-1 wt): 1.63 µM
Binder: NYLLCVKNLYCWIV (cysteine pairing not given here; also: biotinylated, site not given here) [Peptide-28]

IC50 (TBD-11 (HC R98A) [6]): 6.81 µM
IC50 (TBD-17 (HC S104A) [7]): 1.4 µM
IC50 (TBD-21 (HC F108A) [8]): 5.89 µM
IC50 (TBD-22 (HC D109A) [9]): 0.11 µM
Binder: IDFCLIYNWPVCDT (cysteine pairing not given here; also: biotinylated, site not given here) [Peptide-63]

IC50 (TBD-11 (HC R98A) [6]): 1.78 µM
IC50 (TBD-17 (HC S104A) [7]): 1.6 µM
IC50 (TBD-21 (HC F108A) [8]): 1.63 µM
IC50 (TBD-22 (HC D109A) [9]): 0.12 µM
Binder: PDFCAVYRWPICYQ (cysteine pairing not given here; also: biotinylated, site not given here) [Peptide-64]

IC50 [3]: 6.48 µM
IC50 (TBD-6 (LC I93A)): 7.54 µM
IC50 (TBD-11 (HC R98A) [1]): 46.2 µM
IC50 (TBD-17 (HC S104A) [4]): 27.2 µM
IC50 (TBD-22 (HC D109A) [5]): 2.01 µM
Binder: VDFCYQYGWPICSRLY (mask peptide for the TROP2 Fab) [Peptide-47]

IC50 [3]: 14.3 µM
IC50 (TBD-6 (LC I93A)): 12.3 µM
IC50 (TBD-11 (HC R98A) [1]): 19.1 µM
IC50 (TBD-17 (HC S104A) [4]): 15.7 µM
IC50 (TBD-22 (HC D109A) [5]): 0.89 µM
Binder: VDFCYQYAWPVCSTGD (mask peptide for the TROP2 Fab) [Peptide-52]

IC50 (TBD-1 wt): 2.94 µM
Binder: YSLVCVKNLYCWNL (cysteine pairing not given here; also: biotinylated, site not given here) [Peptide-31]

IC50 (TBD-11 (HC R98A) [1]): 3.55 µM
Binder: VEFCKQWTWFGCMT (mask peptide for the TROP2 Fab) [Peptide-44]

IC50 (TBD-1 wt): 0.74 µM
Binder: FSLVCVRNLYCWNV (cysteine pairing not given here; also: biotinylated, site not given here) [Peptide-27]
